Measured values reported in publication PMC8537947, “Improved Radiolytic Stability of a ^68Ga-labelled Collagelin Analogue for the Imaging of Fibrosis” (Pharmaceuticals, 2021).
Bridge positions count the residues as written; N and C are the ends. Square brackets hold non-standard residues; d marks the D form. Peptide text beside a SMILES is read from it. * marks the point of attachment. NOTA = O=C(O)CN1CCN(CC(=O)O)CCN(CC(=O)*)CC1; Nle = CCCC[C@H](N)C(=O)O; AEEA = NCCOCCOCC(=O)O

Design: species or system human
From the text: The rat SUVs were translated into a percentage of injected activity (%IA, Equation (3)) for human organs according to Equation (3) (Table S3), where SUVA is the SUVs of the rat organs; gorgan and kgTBweight are, respectively, standard organ weight and standard total body weight of a human. The standard organ masses and total-body weight values were obtained from the OLINDA software (organ level internal dose assessment code, Vanderbilt University, USA, 2007). (3) %IAOrganhuman=SUVA∗gorgan/kgTBweighthuman The %IA values were decay corrected to the animal termination time point at 5, 10, 30, 40, 60, and 120 min post administration and plotted as a function of time. The area under the curve for each organ was integrated using the trapezoid method assuming a simple exponential decay to eternity after the last point. The derived time-integrated activity coefficient (TIAC) for each organ, which is equal to the number of disintegrations (MBq-h/MBq) and dose rate S-values extracted from the Medical Internal […] (MIRD) pamphlet, was used for the computation of organ and whole-body effective doses (mSv/MBq) in humans in the OLINDA/EXM software package (Version 1.1, Vanderbilt University).

Which “PET/CT examinations per year” value does the source give for CCCC[C@@H]1NC(=O)[C@H](C(C)C)NC(=O)[C@H](CCCNC(=N)N)NC(=O)CNC(=O)[C@@H]2CCCN2C(=O)[C@@H](NC(=O)COCCOCCNC(=O)CN2CCN(CC(=O)O)CCN(CC(=O)O)CC2)CSSC[C@@H](C(=O)O)NC(=O)[C@@H]2CCCN2C(=O)CNC(=O)[C@H](CCC(=O)O)NC(=O)[C@H](CC(=O)O)NC(=O)[C@H](CC(=O)O)NC(=O)CNC(=O)[C@H](CC(C)C)NC(=O)[C@H](Cc2c[nH]cn2)NC(=O)[C@H](CC(C)C)NC(=O)CNC(=O)[C@H](Cc2c[nH]cn2)NC1=O [[^68Ga]Ga-NO2A-[Nle^13]-Col, [^68Ga]Ga-NOTA-PEG2-c[CPGRVNleHGLHLGDDEGPC], metal not drawn] ({NOTA-AEEA}-CPGRV[Nle]HGLHLGDDEGPC-OH; disulfide 1-18) here?
The value was 4-5.

What about the “administration per year allowed by bone marrow absorbed dose” value of the same compound?
The value was 8000-10,000 MBq per year.

And the “dose of all organs other than kidney” value?
Its value is “lower than 0.02 mSv/MBq”.

What about the “dose of the remaining organs” value of the same compound?
The value was “less than 0.009 mSv/MBq”.

What about the “estimated absorbed dose, spleen” value of the same compound?
The value was 0.003 mGy/MBq.
